# Source: article doi:10.1101/322719
# Target: Kaposi's sarcoma-associated herpesvirus (KSHV) ORF68 protein (Kaposi's sarcoma-associated herpesvirus (KSHV))
# Experiment: SEC
substance,measurement,value
Kaposi's sarcoma-associated herpesvirus (KSHV) ORF68 protein (natural protein),stoichiometry N,5
